From the supplement of paper PMC9170038

System: MS2 coat protein
Test: apparent KD of MS2 coat protein; designed switch direction (-1 OFF switch, 1 ON switch): 1; higher = weaker reporter binding
In short: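 Transcription of designed RNA switches on Illumina chips was done by stalled E. coli RNA polymerase. SNAP-549-labelled MS2 coat protein was then titrated in doubling steps from 0.7 or 1.5 nM to 3 µM, with steps of 0.8–1.5 h at the lowest and 10–20 min at the highest concentration. The per-design median over clusters of curve-fitted normalised fluorescence is reported as apparent KD.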

[1] = input ligand: microRNA oligo, concentration not stated
[2] = Eterna round: R95, input ligand: FMN 200 uM
[3] = Eterna round: R95, input ligand: microRNA oligo, concentration not stated
[4] = Eterna round: R95, input ligand: none

Sequence | apparent KD of MS2 coat protein (input ligand: FMN 200 uM) [nM] | apparent KD of MS2 coat protein [1] [nM] | apparent KD of MS2 coat protein (input ligand: none) [nM] | apparent KD of MS2 coat protein [2] [nM] | apparent KD of MS2 coat protein [3] [nM] | apparent KD of MS2 coat protein [4] [nM]
CAAACCGACACAGGAUAUGGAGCCGACCGGCACAUGAGGAUCACCCAUGUGCUACAGGUAUGUAGCUAGAAGGGUGAAGGUAUC [Eternabot solution 29] (Eterna round: R96, puzzle: Same State NG 2) | 48.5 | 56.9 | 118 |  |  | 
GCAUUAGGCAUAGGAUAUCCAACAUGAGGAUCACCCAUGUCGCAGCGUGAAAAGAACGCUGCAAAGGAGAAGGAUGCGGUUUAC [Onususa] (Eterna round: R96, puzzle: Same State NG 2) | 11.8 | 18.8 | 29.9 |  |  | 
AACAAUCUAUCUGAGGAUAUCAUGUCAAAGACAUGAGGAUCACCCAUGUACCAGGAAACUGGAUAUGAGAAGGCAGAUAGAUUGA [SS2: 1119] (Eterna round: R96, puzzle: Same State 2) | 16.6 | 80 | 162 |  |  | 
UAGCUUGUGGUAGGAUAUCUAGGAUAUGGGAAGAGCUAAGCUUGGAAGUCACUUCACCCAGAAGGAGAGAAGGACCAGAGGCUU [pwkr ssNG2 2FMN + F9.6] (Eterna round: R96, puzzle: Same State NG 2) | 218 | 73.6 | 262 |  |  | 
UUAAUGAUGAUAGGAUAUACAUGAGGAAUCCUCGUAGAAGGAUCAUGACAUGAGGAUCACCCAUGUAACGCUCCGUAGAGCGUA [JL SSNG1 1.16] (Eterna round: R96, puzzle: Same State NG 1) | 220 | 94 | 250 |  |  | 
AGAUGUUAAUUAGGAUAUGGACACAUGAGGAUCACCCAUGUAACGAAGAUACGAUGUGGUCAAGUCUAGAAGGGAUAGCUAACA [SameState NG2 #75] (Eterna round: R96, puzzle: Same State NG 2) | 39.9 | 27.3 | 39 |  |  | 
GGUAUCGACGCAGGAUAUGCUAUCCUUUGGGUAGCAGAAGGGUGGACAUGAGGAUCACCCAUGUGGGUGCCAGGGCGUGAGCCC [JL SSNG1 1.83] (Eterna round: R96, puzzle: Same State NG 1) | 283 | 12.8 | 440 |  |  | 
GUGGUCAGACAUGAGGAUCACCCAUGUGGAAUAAAUAACACACAGGAUAUCAAAUAUAAAAUAUAUGAGAAGGGUGGAUUGGUG (Eterna round: R96, puzzle: Same State NG 3) |  | 300 |  |  |  | 
GGCAGGUGCAGGCUUGCUUGCACCUGGAAACAUGAGGAUCACCCAUGUUUGGGACAAGCUUUGCUCCUCGUCUUAUC [JL ViennaUCT Isusreraar mod 1] (puzzle: Sensor for hsa-mir-208a) |  |  |  | 179 | 43.1 | 232
CGUAGGAUAUGCAGAGGAUCACCCUGUAGAAGGACGAUUACGUAGGAUAUGCAGAGGAUCACCCUGUAGAAGGACGACUAAUCU [pwkr ssNG3 DX 2xF5 +2xFMN.2] (Eterna round: R96, puzzle: Same State NG 3) | 174 | 105 | 129 |  |  | 
AUUAUUUAUGCAGGAUAUGAUUAACAUGAGGAUCACCCAUGUGGUGUUGUGAGUAAGGAGAGUGAUCAGAAGGGCAUUUCUUUU [JMF's solution 49] (Eterna round: R96, puzzle: Same State NG 2) | 596 | 315 | 492 |  |  | 
GUGCAACCGUGUGAGGAUAUCGGUGAACAAACAUGAGGAUCACCCAUGUCCGAAGCUCGGUUCUCCGAGAAGGCGCACAGUUGCA [Same State 2 - Mod of Erisin v.3] (puzzle: Same State 2) |  |  |  | 72.6 | 105 | 224
AAGCUGUGUGUAUGGUCAUUGUCAACGGUACAUGAGGAUCACCCAUGUAGCAUUAACCAUCCGACUCUGUUGGAGGU [high scoring solution 6] (Eterna round: R96, puzzle: Sensor for hsa-mir-208a) | 58.7 | 40.7 | 51.7 |  |  | 
UUGUUUGGUAAAAUACAUGAGGAUCACCCAUGUUAUGGUGCAGAGGAUAUGCAUGUUUGAUUGUAGCAGAAGGCUGUUUGUUGU [JR_SSNG3_Sub035] (Eterna round: R96, puzzle: Same State NG 3) | 41.5 | 29.7 | 42.5 |  |  | 
ACAUGAGACUUAGGAUAUGUUGUACCUACAUGUGACAUGAGGAUCACCCAUGUGGUAAGUAUGACACAGAAGGAAGAGAUAUGU [Equivalance 67 - Jieux - Same State NG 2] (Eterna round: R96, puzzle: Same State NG 2) |  | 18.9 |  |  |  | 
GUAUAACAUGAGGAUCACCCAUGUCAUCUAAGUCGAGGAUAUGGGAAUUAAUUAAUUAAACCAGAAGGCGAAAAUG [Mat - Same State 1 - D93] (puzzle: Same State 1) |  |  |  | 48.2 | 291 | 300
UGGCUCAGAGCAGGAUAUAUGUGGUCACAUGAGGAUCACCCAUGUCUCGAGCUUCGGCUCGAGGCAUAGAAGGGCUCUGAGCCA [SSNG2/5-B2] (Eterna round: R96, puzzle: Same State NG 2) | 550 | 48 | 58.1 |  |  | 
AGAUCAUGACGAGGAUAUGGUACAUGAGGAUCACCCAUGUAUGUACCAUAACGCGUACGACGAAACCAGAAGGCGUCGUGGUCA [JL SSNG2 1.08] (Eterna round: R96, puzzle: Same State NG 2) | 11.7 | 14.8 | 27 |  |  | 
GAGGAUGAUUUACAGGAUAUAUAGAAGAUGACAUGAGGAUCACCCAUGUAAGAGAGAGGAGGGAGAUAGAAGGGUAAGGGAUGUG [JR_SS2_Sub41] (puzzle: Same State 2) |  |  |  | 35.4 | 27.8 | 49.6
CUGAGCAAUCAAGGAUAUCACGUCGAUUAGACGUGAGAAGGUGAUCAUCACAUGAGGAUCACCCAUGUGUUACAUGGAGCUCAG [Brourd's SSNG1/1-A2 mod 4] (Eterna round: R96, puzzle: Same State NG 1) |  | 610 |  |  |  | 
UACAAUCUAUCUGAGGAUAUCAUGAAGAAAACAUGAGGAUCACCCAUGUGCAGGAUAACUGCAAAUGAGAAGGCAGAUAGAUUGU [Mat - Same State 2 - Mod - D5] (puzzle: Same State 2) |  |  |  | 8.19 | 18.5 | 18
AUUUAACAAGCUUUUUGCUCGUCUUAUAAACAUGAGGAUCACCCAUGUAAUAGCGUGAGAGUAAUUAUAUUAAUUAU [JMF 101] (puzzle: Sensor for hsa-mir-208a) |  |  |  | 14.7 | 36 | 14.7
AUAAGGCAAGCUUUUUUCUCGUAGUGUAAACAUGAGGAUCACCCAUGUGCCCACCCUGGAUCUUUGGAUCGCGGAAC [Raxesori] (Eterna round: R96, puzzle: Sensor for hsa-mir-208a) | 103 | 21.8 | 90.5 |  |  | 
